Experimental data: patent EP4740967A1 (Shanghai Escugen Biotechnology Co., Ltd., dated 2026)

T1: human Claudin18.2 (human, UniProt P56856 1-261)
T1 sequence (looked up): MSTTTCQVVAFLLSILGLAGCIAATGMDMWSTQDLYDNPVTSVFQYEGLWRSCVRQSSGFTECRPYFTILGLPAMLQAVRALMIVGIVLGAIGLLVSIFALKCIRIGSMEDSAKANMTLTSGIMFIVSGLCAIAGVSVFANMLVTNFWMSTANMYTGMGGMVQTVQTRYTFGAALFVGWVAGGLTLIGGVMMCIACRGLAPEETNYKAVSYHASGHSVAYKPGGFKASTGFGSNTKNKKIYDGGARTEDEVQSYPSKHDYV


Tests used:
Experiment in all cases: cell-based or functional assay
[1] = biological target: T1, human Claudin18.2
[2] = biological target: T1, human Claudin18.2; remark: listed apart in the source
[3] = biological target: T1, human Claudin18.2; remark: listed apart in the source
[4] = biological target: T1, human Claudin18.2; remark: listed apart in the source

Binder	IC50 of in vitro cell killing on MC38-hClaudin18.2 cells (AlamarBlue cell viability) [1] [nM]	IC50 of in vitro cell killing on NUGC4-hClaudin18.2 cells (CCK-8 cell viability, 120 h) [2] [nM]	IC50 of in vitro cell killing on HEK293-hClaudin18.2 cells (AlamarBlue cell viability, 72 h) [3] [nM]	IC50 of inhibition of proliferation of MC38-hClaudin18.2 cells (AlamarBlue cell viability, 72 h) [4] [nM]
9D1-GGFG-Exatecan (antibody, human IgG1, kappa, V domains shown, MC-GGFG-Exatecan linker-drug on reduced interchain cysteines (Conjugation Method 1, DAR 8)) VH: QIQLVQSGAEVKKPGASVKISCKASGYSFTDYHMNWVRQAPGKGLEWIGNIDPYYGSPTYNHKFKGRVTLTVDTSTSTAYMELSSLRSEDTAVYYCANYGRGNSFPYWGQGTLVTVSS VL: DIVMTQSPSSLAVSLGERATINCKSSQSLLNSGNQRNYLTWYQQKPGQPPKLLIYWASTRESGVPDRFSGSGSGTDFTLTISSLQAEDVAVYYCQNDYSFPFTFGQGTKLEIKR	11	0.184		
9D1-ELC122 (antibody, human IgG1, kappa, V domains shown, ELC122 linker-drug (SN38) on reduced interchain cysteines (Conjugation Method 1, DAR 8)) VH: QIQLVQSGAEVKKPGASVKISCKASGYSFTDYHMNWVRQAPGKGLEWIGNIDPYYGSPTYNHKFKGRVTLTVDTSTSTAYMELSSLRSEDTAVYYCANYGRGNSFPYWGQGTLVTVSS VL: DIVMTQSPSSLAVSLGERATINCKSSQSLLNSGNQRNYLTWYQQKPGQPPKLLIYWASTRESGVPDRFSGSGSGTDFTLTISSLQAEDVAVYYCQNDYSFPFTFGQGTKLEIKR			0.628	
9D1-LD-72 (antibody, human IgG1, kappa, V domains shown, LD-72 linker-drug (Exatecan) on reduced interchain cysteines (Conjugation Method 1, DAR 8)) VH: QIQLVQSGAEVKKPGASVKISCKASGYSFTDYHMNWVRQAPGKGLEWIGNIDPYYGSPTYNHKFKGRVTLTVDTSTSTAYMELSSLRSEDTAVYYCANYGRGNSFPYWGQGTLVTVSS VL: DIVMTQSPSSLAVSLGERATINCKSSQSLLNSGNQRNYLTWYQQKPGQPPKLLIYWASTRESGVPDRFSGSGSGTDFTLTISSLQAEDVAVYYCQNDYSFPFTFGQGTKLEIKR	1.08	0.553		
9D1-LD-88 (antibody, human IgG1, kappa, V domains shown, LD-88 linker-drug (Exatecan) on reduced interchain cysteines (Conjugation Method 1; DAR printed as 1 in Table 1)) VH: QIQLVQSGAEVKKPGASVKISCKASGYSFTDYHMNWVRQAPGKGLEWIGNIDPYYGSPTYNHKFKGRVTLTVDTSTSTAYMELSSLRSEDTAVYYCANYGRGNSFPYWGQGTLVTVSS VL: DIVMTQSPSSLAVSLGERATINCKSSQSLLNSGNQRNYLTWYQQKPGQPPKLLIYWASTRESGVPDRFSGSGSGTDFTLTISSLQAEDVAVYYCQNDYSFPFTFGQGTKLEIKR				1.46
9D1-LD-73 (antibody, human IgG1, kappa, V domains shown, LD-73 linker-drug (Exatecan, PEG side chain) on reduced interchain cysteines (Conjugation Method 1, DAR 8)) VH: QIQLVQSGAEVKKPGASVKISCKASGYSFTDYHMNWVRQAPGKGLEWIGNIDPYYGSPTYNHKFKGRVTLTVDTSTSTAYMELSSLRSEDTAVYYCANYGRGNSFPYWGQGTLVTVSS VL: DIVMTQSPSSLAVSLGERATINCKSSQSLLNSGNQRNYLTWYQQKPGQPPKLLIYWASTRESGVPDRFSGSGSGTDFTLTISSLQAEDVAVYYCQNDYSFPFTFGQGTKLEIKR	1.4	1.27		
9D1-LD-31-P2 (antibody, human IgG1, kappa, V domains shown, LD-31-P2 linker-drug (Exatecan) on reduced interchain cysteines (Conjugation Method 1, DAR 8)) VH: QIQLVQSGAEVKKPGASVKISCKASGYSFTDYHMNWVRQAPGKGLEWIGNIDPYYGSPTYNHKFKGRVTLTVDTSTSTAYMELSSLRSEDTAVYYCANYGRGNSFPYWGQGTLVTVSS VL: DIVMTQSPSSLAVSLGERATINCKSSQSLLNSGNQRNYLTWYQQKPGQPPKLLIYWASTRESGVPDRFSGSGSGTDFTLTISSLQAEDVAVYYCQNDYSFPFTFGQGTKLEIKR	2.91			
9D1-LD-37 (antibody, human IgG1, kappa, V domains shown, LD-37 linker-drug (Exatecan) on reduced interchain cysteines (Conjugation Method 1, DAR 8)) VH: QIQLVQSGAEVKKPGASVKISCKASGYSFTDYHMNWVRQAPGKGLEWIGNIDPYYGSPTYNHKFKGRVTLTVDTSTSTAYMELSSLRSEDTAVYYCANYGRGNSFPYWGQGTLVTVSS VL: DIVMTQSPSSLAVSLGERATINCKSSQSLLNSGNQRNYLTWYQQKPGQPPKLLIYWASTRESGVPDRFSGSGSGTDFTLTISSLQAEDVAVYYCQNDYSFPFTFGQGTKLEIKR	0.802			
9D1-LD-74 (antibody, human IgG1, kappa, V domains shown, LD-74 linker-drug (Exatecan, polysarcosine side chain) on reduced interchain cysteines (Conjugation Method 1, DAR 8)) VH: QIQLVQSGAEVKKPGASVKISCKASGYSFTDYHMNWVRQAPGKGLEWIGNIDPYYGSPTYNHKFKGRVTLTVDTSTSTAYMELSSLRSEDTAVYYCANYGRGNSFPYWGQGTLVTVSS VL: DIVMTQSPSSLAVSLGERATINCKSSQSLLNSGNQRNYLTWYQQKPGQPPKLLIYWASTRESGVPDRFSGSGSGTDFTLTISSLQAEDVAVYYCQNDYSFPFTFGQGTKLEIKR	2.22	1.16		
9D1-LD-82 (antibody, human IgG1, kappa, V domains shown, LD-82 linker-drug (structure, preparation and DAR not described in the filing)) VH: QIQLVQSGAEVKKPGASVKISCKASGYSFTDYHMNWVRQAPGKGLEWIGNIDPYYGSPTYNHKFKGRVTLTVDTSTSTAYMELSSLRSEDTAVYYCANYGRGNSFPYWGQGTLVTVSS VL: DIVMTQSPSSLAVSLGERATINCKSSQSLLNSGNQRNYLTWYQQKPGQPPKLLIYWASTRESGVPDRFSGSGSGTDFTLTISSLQAEDVAVYYCQNDYSFPFTFGQGTKLEIKR				8.01
9D1-LD-12 (antibody, human IgG1, kappa, V domains shown, LD-12 linker-drug (Exatecan) on reduced interchain cysteines (Conjugation Method 1, DAR 8)) VH: QIQLVQSGAEVKKPGASVKISCKASGYSFTDYHMNWVRQAPGKGLEWIGNIDPYYGSPTYNHKFKGRVTLTVDTSTSTAYMELSSLRSEDTAVYYCANYGRGNSFPYWGQGTLVTVSS VL: DIVMTQSPSSLAVSLGERATINCKSSQSLLNSGNQRNYLTWYQQKPGQPPKLLIYWASTRESGVPDRFSGSGSGTDFTLTISSLQAEDVAVYYCQNDYSFPFTFGQGTKLEIKR	0.799	0.58		
9D1-vc-PAB-MMAE (antibody, human IgG1, kappa, V domains shown, MC-VC-PAB-MMAE linker-drug on partially reduced interchain cysteines (Conjugation Method 2, DAR 4)) VH: QIQLVQSGAEVKKPGASVKISCKASGYSFTDYHMNWVRQAPGKGLEWIGNIDPYYGSPTYNHKFKGRVTLTVDTSTSTAYMELSSLRSEDTAVYYCANYGRGNSFPYWGQGTLVTVSS VL: DIVMTQSPSSLAVSLGERATINCKSSQSLLNSGNQRNYLTWYQQKPGQPPKLLIYWASTRESGVPDRFSGSGSGTDFTLTISSLQAEDVAVYYCQNDYSFPFTFGQGTKLEIKR	0.407	0.064		
9D1-LD-66 (antibody, human IgG1, kappa, V domains shown, LD-66 linker-drug (Exatecan) on reduced interchain cysteines (Conjugation Method 1, DAR 8)) VH: QIQLVQSGAEVKKPGASVKISCKASGYSFTDYHMNWVRQAPGKGLEWIGNIDPYYGSPTYNHKFKGRVTLTVDTSTSTAYMELSSLRSEDTAVYYCANYGRGNSFPYWGQGTLVTVSS VL: DIVMTQSPSSLAVSLGERATINCKSSQSLLNSGNQRNYLTWYQQKPGQPPKLLIYWASTRESGVPDRFSGSGSGTDFTLTISSLQAEDVAVYYCQNDYSFPFTFGQGTKLEIKR	1.09	0.996	0.996	
9D1-LD-31-P1 (antibody, human IgG1, kappa, V domains shown, LD-31-P1 linker-drug (Exatecan) on reduced interchain cysteines (Conjugation Method 1, DAR 8)) VH: QIQLVQSGAEVKKPGASVKISCKASGYSFTDYHMNWVRQAPGKGLEWIGNIDPYYGSPTYNHKFKGRVTLTVDTSTSTAYMELSSLRSEDTAVYYCANYGRGNSFPYWGQGTLVTVSS VL: DIVMTQSPSSLAVSLGERATINCKSSQSLLNSGNQRNYLTWYQQKPGQPPKLLIYWASTRESGVPDRFSGSGSGTDFTLTISSLQAEDVAVYYCQNDYSFPFTFGQGTKLEIKR	4.35			
9D1-LD-65 (antibody, human IgG1, kappa, V domains shown, LD-65 linker-drug (Exatecan) on reduced interchain cysteines (Conjugation Method 1, DAR 8)) VH: QIQLVQSGAEVKKPGASVKISCKASGYSFTDYHMNWVRQAPGKGLEWIGNIDPYYGSPTYNHKFKGRVTLTVDTSTSTAYMELSSLRSEDTAVYYCANYGRGNSFPYWGQGTLVTVSS VL: DIVMTQSPSSLAVSLGERATINCKSSQSLLNSGNQRNYLTWYQQKPGQPPKLLIYWASTRESGVPDRFSGSGSGTDFTLTISSLQAEDVAVYYCQNDYSFPFTFGQGTKLEIKR	1.61	0.701	0.086	
9D1-LD-71 (antibody, human IgG1, kappa, V domains shown, LD-71 linker-drug (SN38) on reduced interchain cysteines (Conjugation Method 1, DAR 8)) VH: QIQLVQSGAEVKKPGASVKISCKASGYSFTDYHMNWVRQAPGKGLEWIGNIDPYYGSPTYNHKFKGRVTLTVDTSTSTAYMELSSLRSEDTAVYYCANYGRGNSFPYWGQGTLVTVSS VL: DIVMTQSPSSLAVSLGERATINCKSSQSLLNSGNQRNYLTWYQQKPGQPPKLLIYWASTRESGVPDRFSGSGSGTDFTLTISSLQAEDVAVYYCQNDYSFPFTFGQGTKLEIKR			0.397	
9D1-LD-57 (antibody, human IgG1, kappa, V domains shown, LD-57 linker-drug (MMAE) on partially reduced interchain cysteines (Conjugation Method 2, DAR 4)) VH: QIQLVQSGAEVKKPGASVKISCKASGYSFTDYHMNWVRQAPGKGLEWIGNIDPYYGSPTYNHKFKGRVTLTVDTSTSTAYMELSSLRSEDTAVYYCANYGRGNSFPYWGQGTLVTVSS VL: DIVMTQSPSSLAVSLGERATINCKSSQSLLNSGNQRNYLTWYQQKPGQPPKLLIYWASTRESGVPDRFSGSGSGTDFTLTISSLQAEDVAVYYCQNDYSFPFTFGQGTKLEIKR	0.53	0.053		
9D1-LD-89 (antibody, human IgG1, kappa, V domains shown, LD-89 linker-drug (Exatecan) on reduced interchain cysteines (Conjugation Method 1; DAR printed as 1 in Table 1)) VH: QIQLVQSGAEVKKPGASVKISCKASGYSFTDYHMNWVRQAPGKGLEWIGNIDPYYGSPTYNHKFKGRVTLTVDTSTSTAYMELSSLRSEDTAVYYCANYGRGNSFPYWGQGTLVTVSS VL: DIVMTQSPSSLAVSLGERATINCKSSQSLLNSGNQRNYLTWYQQKPGQPPKLLIYWASTRESGVPDRFSGSGSGTDFTLTISSLQAEDVAVYYCQNDYSFPFTFGQGTKLEIKR				0.757
